Experimental data published in US20260116996A1 (REGENTS OF THE UNIVERSITY OF MINNESOTA, published 2026).

How the values were obtained:
human serpinB3 = molecular target: T1, human serpinB3 (human, UniProt P29508 1-390); test: ELISA cross-reactivity test / Luminex bead assay (FIG. 25)
T1 construct: Luminex antigen captured from a 293 cell lysate; not shown: V5-His tag of the pcDNA3.1 Directional V5-His-TOPO vector
T1 sequence (looked up): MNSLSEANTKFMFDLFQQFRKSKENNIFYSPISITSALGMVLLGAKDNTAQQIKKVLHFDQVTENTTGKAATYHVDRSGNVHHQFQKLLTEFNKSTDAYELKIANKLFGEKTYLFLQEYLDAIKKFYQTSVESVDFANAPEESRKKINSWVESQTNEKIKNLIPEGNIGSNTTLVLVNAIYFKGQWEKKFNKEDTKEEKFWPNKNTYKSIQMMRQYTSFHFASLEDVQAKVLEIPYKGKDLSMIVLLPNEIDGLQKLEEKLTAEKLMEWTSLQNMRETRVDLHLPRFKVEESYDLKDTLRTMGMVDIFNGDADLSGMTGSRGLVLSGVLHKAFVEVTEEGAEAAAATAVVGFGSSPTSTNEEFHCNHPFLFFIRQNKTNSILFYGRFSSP
Method: (§1) Three recombinant human anti-serpinB13 antibodies were examined in the Luminex-based assay for binding to other clade B serpins, in order as indicated. The final concentration of each antibody was 1.0 μg/mL. The data are expressed as immunofluorescence intensity measured for binding to individual human serpin antigens after subtracting the background. The latter was determined as the average antibody binding to Luminex beads coated with Gfp and Scgn control antigens. Similar data were obtained for antigen binding of Fab fragments of these antibodies (data not shown).
(§2) Luminex assay. Luminex-based technology was used to measure serpinB13 AA in human samples. Initially, the Luminex beads were precoated with serpinB13, Gfp and Scgn, using precleared lysates of 293 cells that had been transfected with individual cDNAs. Biotinylated mouse anti-human K and 2 chain mAbs (BD Biosciences) (dilution 1:300) and streptavidin (Invitrogen) (dilution 1:200) were used as secondary reagents to measure human serum binding activity to individual antigens. The data were expressed as fluorescence intensity (F.I.) due to serum binding activity in the presence of beads precoated with serpinB13 and after subtracting the average F.I. due to serum binding activity in the presence of beads precoated with control proteins, Gfp and Scgn (e.g. F.I.^B13-[F.I.^GFP+F.I.^Segn]/2). The samples were evaluated based on the level of F.I. and the degree of inhibition of binding to serpin-B13 coated beads with soluble serpinB13 (2.5 μg/mL), compared with the bovine serum albumin (BSA). […] All samples were run blind on three independent occasions. Subjects with serum samples that produced a positive results three times were considered positive. Subjects with serum samples that produced a negative result on at least one occasion were considered negative.
(§3) To determine whether anti-serpin activity is specific, binding of three human recombinant antibodies to serpinB13 was examined for potential cross-reactivity with other clade B serpins.

human serpinB10 = molecular target: T2, human serpinB10 (human, UniProt P48595 1-397); test: as above
T2 construct: Luminex antigen captured from a 293 cell lysate; not shown: V5-His tag of the pcDNA3.1 Directional V5-His-TOPO vector
T2 sequence (looked up): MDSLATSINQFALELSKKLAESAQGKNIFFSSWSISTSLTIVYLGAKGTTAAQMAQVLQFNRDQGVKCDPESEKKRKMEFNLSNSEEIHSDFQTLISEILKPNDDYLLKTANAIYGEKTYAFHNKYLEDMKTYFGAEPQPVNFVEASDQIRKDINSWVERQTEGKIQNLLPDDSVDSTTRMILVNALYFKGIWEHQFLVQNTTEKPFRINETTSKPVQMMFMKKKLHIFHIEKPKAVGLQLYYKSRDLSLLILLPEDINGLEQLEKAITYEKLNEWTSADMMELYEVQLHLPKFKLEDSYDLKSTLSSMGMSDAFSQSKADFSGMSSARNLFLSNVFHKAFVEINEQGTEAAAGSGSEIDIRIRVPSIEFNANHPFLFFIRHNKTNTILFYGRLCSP
Method: as §1, §2, §3

human serpinB9 = molecular target: T3, human serpinB9 (human, UniProt P50453 1-376); test: Luminex bead assay, beads coated with human serpinB9, background (Gfp and Scgn beads) subtracted
T3 construct: Luminex antigen captured from a 293 cell lysate; not shown: V5-His tag of the pcDNA3.1 Directional V5-His-TOPO vector
T3 sequence (looked up): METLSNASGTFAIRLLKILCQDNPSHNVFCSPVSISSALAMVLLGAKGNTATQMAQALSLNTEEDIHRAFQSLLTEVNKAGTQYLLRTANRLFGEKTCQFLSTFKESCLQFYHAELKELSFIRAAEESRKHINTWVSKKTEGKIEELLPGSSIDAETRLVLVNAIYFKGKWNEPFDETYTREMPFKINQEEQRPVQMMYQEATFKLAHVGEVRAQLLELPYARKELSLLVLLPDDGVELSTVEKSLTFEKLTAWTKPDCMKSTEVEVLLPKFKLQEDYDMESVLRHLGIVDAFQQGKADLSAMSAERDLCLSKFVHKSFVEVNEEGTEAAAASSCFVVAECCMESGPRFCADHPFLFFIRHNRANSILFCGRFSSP
Method: (§4) The latter was determined as the average antibody binding to Luminex beads coated with Gfp and Scgn control antigens. Similar data were obtained for antigen binding of Fab fragments of these antibodies (data not shown).
as §2
(§5) To determine whether anti-serpin activity is specific, binding of three human recombinant antibodies to serpinB13 was examined for potential cross-reactivity with other clade B serpins. Binding to the beads conjugated with Gfp and Scgn was used to subtract the background and the assay was developed using the same reagents as those described above for measuring serpinB13 AA in serum samples.

human serpinB12 = molecular target: T4, human serpinB12 (human, UniProt Q96P63 1-405); test: Luminex bead assay, beads coated with human serpinB12, background (Gfp and Scgn beads) subtracted
T4 construct: Luminex antigen captured from a 293 cell lysate; not shown: V5-His tag of the pcDNA3.1 Directional V5-His-TOPO vector
T4 sequence (looked up): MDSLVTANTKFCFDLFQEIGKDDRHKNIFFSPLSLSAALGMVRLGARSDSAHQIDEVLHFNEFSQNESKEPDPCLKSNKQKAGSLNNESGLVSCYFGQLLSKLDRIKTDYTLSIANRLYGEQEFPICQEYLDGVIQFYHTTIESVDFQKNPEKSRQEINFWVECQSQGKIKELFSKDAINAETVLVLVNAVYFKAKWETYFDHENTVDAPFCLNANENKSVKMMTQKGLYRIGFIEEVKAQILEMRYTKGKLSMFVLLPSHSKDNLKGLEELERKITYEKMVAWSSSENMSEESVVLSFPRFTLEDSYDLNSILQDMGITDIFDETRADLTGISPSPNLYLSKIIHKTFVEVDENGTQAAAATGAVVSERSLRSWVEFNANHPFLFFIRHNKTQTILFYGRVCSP
Method: as §4, §2, §5

Measured: binding result

B1: recombinant fully human anti-serpinB13 antibody Clone 2 (antibody, human IgG1, kappa, V domains shown)
VH: QMQLVQSGGGVVRPGGSLRLSCAASGFTFDDYGMSWVRQAPGKGLEWVSGINWNGGSTGYADSVKGRFTISRDNAKNSLYLQMNSLRAEDTALYYCARESSMTTVTTYLLREVGVGLDFDYWGQGTLVTVSS
VL: ETTLTQSPGTLSLSPGERATLSCRASQTVSGSYLAWYQQKPGQPPRLLIYGASSRATGIPDRFSGSGSGTDFTLTISRLEPEDFAVYYCQDYGSSRTFGQGTKVELKR
notes: also called mAb2; CLONE2-H(m1) / CLONE2-L(m1)
no binding (tested: 1.0 µg/mL): human serpinB3 | human serpinB10 | human serpinB9 | human serpinB12

B2: recombinant fully human anti-serpinB13 antibody Clone 1 (antibody, human IgG1, kappa, V domains shown)
VH: QVQLQESGGGVVQPGRSLRLSCAASGFTFSSYGMHWVRQAPGKGLEWVAVISYDGSNKYYADSVKGRFTISRDNSKNTLYLQMNSLRAEDTAVYYCARDLGAVIAVAGTSTPYNWFDPWGQGTLVTVSS
VL: DVVMTQSPLSLPVTPGEPASISCRSRQSLLHSNGHNYLGWYLQKPGQSPQLLIYLASIRASGIPDRFSGSGSGTDFTLKISRVEAEDVGVYYCMQALQTPYTFGQGTKLEIKR
notes: also called mAb1; mAbs1
no binding (tested: 1.0 µg/mL): human serpinB3 | human serpinB10 | human serpinB9 | human serpinB12

B3: recombinant fully human anti-serpinB13 antibody Clone 3 (antibody, human IgG1, kappa, V domains shown)
VH: QVQLQQWGAGLLKPSETLSLTCAVYGGSFSGYYWSWIRQPPGKGLEWIGEINHSGSTNYNPSLKSRVTISVDTSKNQFSLKLSSVTAADTAVYYCARRYCSGGSCYLVGTGSELDYWGQGTLVTVSS
VL: DIQMTQSPSTLSASVGDRVTITCRASQSISSWLAWYQQKPGKAPKLLIYKASSLEIGVPSRFSGSGYGTEFTLTISSLQPDDFATYYCLQYSTHSTFGQGTRVEIKR
notes: also called mAb3; CLONE3-H(m1) / CLONE3-L(m1)
no binding (tested: 1.0 µg/mL): human serpinB3 | human serpinB10 | human serpinB9 | human serpinB12
